Legend:
[1] = test system: HUVECs; assay: HUVECs adhesion to plates coated with βig-h3, its fas-1 domains or mutants; format: cell-based, human; details: 10 μg/ml protein coated on plate; attached cells by absorbance at 405 nm; control BSA
Description: Cell adhesion assay was performed according to the method described by Kim, J.-E. et al., J. Biol. Chem., 277:4615946165, 2002. For this purpose, 10 μg/ml of each of the recombinant proteins (βig-h3 His-β-b, βig-h3 D-I, βig-h3 D-II, βig-h3 D-III and βig-h3 D-IV) prepared in Example 1 was placed into a flat-bottomed 96-well ELISA (enzyme-linked immunosorbent assay) plate (Costar, Corning Inc., NY) and then incubated overnight at 4° C., to coat the surface of the plate. As a control, 2% BSA was coated on the plate. Then, the plate was treated with PBS (phosphate-buffered saline) containing 2% BSA, and blocked at room temperature for one hour.
Meanwhile, HUVECs (human umbilical vein endothelial cells; Clonetics, San Diego, Calif.) were incubated in EGM medium (Clonetics, San Diego, Calif.) containing 2% FBS (Fetal Bovine Serum) under a condition of 37° C. and 5% CO2. The incubated cells were suspended in medium at a density of 3×10^5 cells/ml, and 0.1 ml of the cell suspension was added to each well of the plate. Next, the cells were incubated at 37° C. for 30 minutes and washed one time with PBS buffer to remove cells which had not been attached to the plate. Attached cells were added with 50 mM citrate buffer (pH 5.0) containing 3.75 mM p-nitrophenyl-N-acetyl β-D-glycosaminide and 0.25% Triton X-100, and incubated at 37° C. for one hour. Thereafter, 50 mM glycine buffer (pH 10.4) containing 5 mM EDTA was added to block the activity of the enzyme. The absorbance was measured at a 405-nm in a Bio-Rad model 550 microplate reader. Here, the higher the number of cells adhered to the plate, the higher the absorbance.
Each of the deletion mutants was generated by PCR using a cDNA template encoding the fourth fas-1 domain (SEQ ID NO: 5) (Kim, J.-E. et al., J. Biol. Chem., 275:30907-30915, 2000). Each of the PCR-amplified DNA fragments was cloned into the EcoRV/Xhol sites of the pET-29b(+) vector (Novagen; Madison, Wis.). The mutations were confirmed by sequence analysis, and the deletion mutants were expressed and purified according to a prior method (Kim, J.-E., et al., J. Cell. Biochem., 77:169-178, 2000). Thereafter, the cell adhesion activity of each of the deletion mutants was tested in the same manner as in Example 2.
Previously, the present inventors reported that an YH motif, which contains tyrosine-histidine residues highly conserved in the fragment corresponding to amino acids 548-614 of SEQ ID NO: 1, and several leucine and isoleucine residues adjacent to the tyrosine-histidine residues, binds to the αvβ5 integrin (Kim, J.-E., et al., J. Biol. Chem., 277:46159-46165, 2002). Thus, the present inventors suspected that the YH motif may also interact with the αvβ3 integrin to mediate endothelial cell adhesion. For this reason, in the present invention, the tyrosine-histidine residues conserved in the fas-1 domains, and/or the leucine and isolucine residues adjacent to the tyrosine-histidine residues, were substituted in various combinations by alanine or serine (Kim, J.-E., et al., J. Biol. Chem. 277:4615946165, 2002)(see FIG. 4b). The amino acid sequences of the prepared YH motif mutants are shown in SEQ ID NO: 17 to SEQ ID NO: 22. The mutations were confirmed by sequence analysis. Then, the substitution mutants were expressed and purified according to a known method (Kim, J.-E., et al., J. Cell. Biochem., 77:169-178, 2000). The substitution mutants were tested for their cell adhesion activity according to the same manner as in Example 2.

[2] = test system: pc/293 cells (HEK293 cells transfected with pcDNA3 vector); assay: Adhesion of pc/293 cells to βig-h3; format: cell-based, human; details: plate coated with βig-h3; control transfectant
Description: (§1) To construct a human β3 integrin expression vector, RT-PCR was performed using a human placenta poly(A)^+ RNA as a template, thereby generating a 2.4-kb β3 cDNA (Chandrika, S. K. et al., J. Biol. Chem., 272:16390-16397, 1997). The amplified β3 cDNA was digested with HindIII/XbaI, and then cloned into the pcDNA3 vector (Invitrogen). The resulting vector was named “β3/pcDNA3”. Then, 1 μg of the β3/pcDNA3 vector was introduced into HEK293 cells (ATCC, catalog No. CRL 1573) using lipofectamin (Gibco). A control was introduced with a pcDNA3 vector containing no human β3 cDNA. Since all the vectors contain a G418 selection marker, the stable transfected cells were screened using 1 mg/ml of G418. The cell transfected with the β3/pcDNA3 vector was named “β3/293”, and the cell transfected with the pcDNA3 vector (control) was named “pc/293”. Each of the screened transfectants was incubated in DMEM (Dulbecco's Modified Eagle Medium) containing 10% FBS, streptomycin and penicillin. Then, cell adhesion assay was performed in the same manner as in Example 2.

[3] = test system: β3/293 cells (HEK293 cells transfected with human β3 integrin expression vector); assay: Adhesion of β3/293 cells to βig-h3 and its inhibition; format: cell-based; details: plate coated with βig-h3
Description: as §1
In the present invention, to further confirm that βig-h3 mediates endothelial cell adhesion through the αvβ3 integrin, cell adhesion assay using antibodies that block the function of integrins was performed in the same manner as in Example 3-1. […]

B1: βig-h3: recombinant human βig-h3 protein that expresses all of four fas-1 domains; biotinylated form used in binding assay (protein)
chain: YQRKICGKSTVISYECCPGYEKVPGEKGCPAALPLSNLYETLGVVGSTTTQLYTDRTEKLRPEMEGPGSFTIFAPSNEAWASLPAEVLDSLVSNVNIELLNALRYHMVGRRVLTDELKHGMTLTSMYQNSNIQIHHYPNGIVTVNCARLLKADHHATNGVVHLIDKVISTITNNIQQIIEIEDTFETLRAAVAASGLNTMLEGNGQYTLLAPTNEAFEKIPSETLNRILGDPEALRDLLNNHILKSAMCAEAIVAGLSVETLEGTTLEVGCSGDMLTINGKAIISNKDILATNGVIHYIDELLIPDSAKTLFELAAESDVSTAIDLFRQAGLGNHLSGSERLTLLAPLNSVFKDGTPPIDAHTRNLLRNHIIKDQLASKYLYHGQTLETLGGKKLRVFVYRNSLCIENSCIAAHDKRGRYGTLFTMDRVLTPPMGTVMDVLKGDNRFSMLVAAIQSAGLTETLNREGVYTVFAPTNEAFRALPPRERSRLLGDAKELANILKYHIGDEILVSGGIGALVRLKSLQGDKLEVSLKNNVVSVNKEPVAEPDIMATNGVVHVITNVLQPPANRPQERGDELADSALEI
endothelial cell (HUVECs) adhesion activity [1]: mediated the adhesion of endothelial cells | adhesion of pc/293 cells to βig-h3 [2]: not adhered | adhesion of β3/293 cells to βig-h3 [3]: strongly adhered

From patent US7919464B2, “Use of a peptide that interacts with αvβ3 integrin of endothelial cell” (Kyungpook National University Industry-Academic Cooperation …, priority 2003, dated 2011)
